Ends that are not written are not given here.

The target of this test is mixture of biotinylated D-enantiomeric Aβ1-42 oligomers and fibrils (UniProt P05067). The test is described as follows: monoclonal phage ELISA, A450; signal on immobilized oligomers/fibrils (normalized by the 6E10 control) against signal on monomers set to 100%. (In general: An ELISA detects its analyte on a solid surface through an enzyme-linked reagent.)
Sequence of mixture of biotinylated D-enantiomeric Aβ1-42 oligomers and fibrils (P05067 672-713 limits assumed, form in doubt): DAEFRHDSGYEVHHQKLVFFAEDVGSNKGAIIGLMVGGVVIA
Turning to HTWTHWFSWNVP (peptide, not shown: large carriers, not fully specified) [individual phage clone 6.242 (Mosd10)], the Difference in signal strength between Aβ1-42 monomers (100%) and Aβ1-42 oligomers and fibrils was determined as 71.9%.

Turning to DRSKGDHRITQM (peptide, not shown: large carriers, not fully specified) [individual phage clone 6.257 (Mosd18)], the Difference in signal strength between Aβ1-42 monomers (100%) and Aβ1-42 oligomers and fibrils is 49.2%.

For the molecule EHWDFGQWWQQS (peptide, not shown: large carriers, not fully specified) [individual phage clone 6.197 (Mosd14)], the Difference in signal strength between Aβ1-42 monomers (100%) and Aβ1-42 oligomers and fibrils is 56.5%.

Turning to STLHFYTAFLNK (peptide, not shown: large carriers, not fully specified) [individual phage clone 6.249 (Mosd6)], the Difference in signal strength between Aβ1-42 monomers (100%) and Aβ1-42 oligomers and fibrils is 68%.

Consider HLSWYWEKYLTS (peptide, not shown: large carriers, not fully specified) [individual phage clone 6.239 (Mosd9)], for which the Difference in signal strength between Aβ1-42 monomers (100%) and Aβ1-42 oligomers and fibrils worked out at 68%.

Consider HTWTTYDYVWRL (peptide, not shown: large carriers, not fully specified) [individual phage clone 5.80 (Mosd2)], for which the Difference in signal strength between Aβ1-42 monomers (100%) and Aβ1-42 oligomers and fibrils was found to be 67.1%.

YSYLTSYHMVWR (peptide, not shown: large carriers, not fully specified) [individual phage clone 5.60, which contains the peptide sequence of Mosd1]: the Difference in signal strength between Aβ1-42 monomers (100%) and Aβ1-42 oligomers and fibrils came to 72%.

Regarding HFWSWTSLSMTR (peptide, not shown: large carriers, not fully specified) [individual phage clone 6.227 (Mosd8)], the Difference in signal strength between Aβ1-42 monomers (100%) and Aβ1-42 oligomers and fibrils stood at 68.6%.

Regarding VHWDFRQWWQQS (peptide, not shown: large carriers, not fully specified) [individual phage clone 6.141 (Mosd12)], the Difference in signal strength between Aβ1-42 monomers (100%) and Aβ1-42 oligomers and fibrils was 59%.

In the case of DLRFSSLWKLSH (peptide, not shown: large carriers, not fully specified) [individual phage clone 6.190 (Mosd19)], the Difference in signal strength between Aβ1-42 monomers (100%) and Aβ1-42 oligomers and fibrils was 50.3%.

For HNWFYWTTEPYD (peptide, not shown: large carriers, not fully specified) [individual phage clone 5.81 (Mosd4)], the Difference in signal strength between Aβ1-42 monomers (100%) and Aβ1-42 oligomers and fibrils stood at 69.2%.

In the case of FSWSMVMPWPTA (peptide, not shown: large carriers, not fully specified) [individual phage clone 6.135 (Mosd21)], the Difference in signal strength between Aβ1-42 monomers (100%) and Aβ1-42 oligomers and fibrils worked out at 46%.

For the molecule LSMNITTVHRWH (peptide, not shown: large carriers, not fully specified) [individual phage clone 6.245 (Mosd11)], the Difference in signal strength between Aβ1-42 monomers (100%) and Aβ1-42 oligomers and fibrils was 57.7%.

As for VHWDFRQWWQPS (peptide, not shown: large carriers, not fully specified) [individual phage clone 6.167 (Mosd20)], the Difference in signal strength between Aβ1-42 monomers (100%) and Aβ1-42 oligomers and fibrils was 45.7%.

In the case of GQWDFRQWWQPC (peptide, not shown: large carriers, not fully specified) [individual phage clone 6.255 (Mosd15)], the Difference in signal strength between Aβ1-42 monomers (100%) and Aβ1-42 oligomers and fibrils was determined as 60%.

FSHSHHTWFTWN (peptide, not shown: large carriers, not fully specified) [individual phage clone 6.247 (Mosd7)]: the Difference in signal strength between Aβ1-42 monomers (100%) and Aβ1-42 oligomers and fibrils came out at 58%.

With ERSQWGHRDPQS (peptide, not shown: large carriers, not fully specified) [individual phage clone 6.240 (Mosd17)], the Difference in signal strength between Aβ1-42 monomers (100%) and Aβ1-42 oligomers and fibrils worked out at 54.5%.

Consider GTMLKFSGMNLT (peptide, not shown: large carriers, not fully specified) [individual phage clone 5.57 (Mosd3)], for which the Difference in signal strength between Aβ1-42 monomers (100%) and Aβ1-42 oligomers and fibrils is 60%.

For the molecule YSFHFEMNMGNY (peptide, not shown: large carriers, not fully specified) [individual phage clone 6.113 (Mosd13)], the Difference in signal strength between Aβ1-42 monomers (100%) and Aβ1-42 oligomers and fibrils amounted to 57.2%.

With DWSSRVYRDPQT (peptide, not shown: large carriers, not fully specified) [individual phage clone 6.139 (Mosd16)], the Difference in signal strength between Aβ1-42 monomers (100%) and Aβ1-42 oligomers and fibrils came out at 52.4%.

Consider HNWSWEWWYNPN (peptide, not shown: large carriers, not fully specified) [individual phage clone 6.216 (Mosd5)], for which the Difference in signal strength between Aβ1-42 monomers (100%) and Aβ1-42 oligomers and fibrils came to 62.7%.

The record behind these values is US20180072786A1.
